Data from patent US20230357348A1 (AstraZeneca / MedImmune, published 2023).
Each block holds one binder with its values, some of them ahead of it. Starred links: 1 amine or outer side, 2 acyl side, 3 side chain; linkers in the order of their positions; H or OH if unused. Non-standard residues stand in square brackets, D forms with d. Groups on a side chain read outwards from the residue. No end group written: not given here. *: point of attachment. C20 diacid = O=C(O)CCCCCCCCCCCCCCCCCCC(=O)*; C18 diacid = O=C(O)CCCCCCCCCCCCCCCCC(=O)*; γGlu = O=C(O)[C@H](CCC(=O)[*:2])N[*:1]; αMeF = C[C@](N)(Cc1ccccc1)C(=O)O; AEEA = NCCOCCOCC(=O)O; Aib = CC(C)(N)C(=O)O

What was measured:
[1] = target: human glucagon receptor (hGCGR) (human, UniProt P47871 26-477); test: cell-based or functional assay
[2] = target: human GLP-1 receptor (hGLP-1R) (human, UniProt P43220 24-463); test: cell-based or functional assay

human glucagon receptor (hGCGR), sequence (P47871 26-477): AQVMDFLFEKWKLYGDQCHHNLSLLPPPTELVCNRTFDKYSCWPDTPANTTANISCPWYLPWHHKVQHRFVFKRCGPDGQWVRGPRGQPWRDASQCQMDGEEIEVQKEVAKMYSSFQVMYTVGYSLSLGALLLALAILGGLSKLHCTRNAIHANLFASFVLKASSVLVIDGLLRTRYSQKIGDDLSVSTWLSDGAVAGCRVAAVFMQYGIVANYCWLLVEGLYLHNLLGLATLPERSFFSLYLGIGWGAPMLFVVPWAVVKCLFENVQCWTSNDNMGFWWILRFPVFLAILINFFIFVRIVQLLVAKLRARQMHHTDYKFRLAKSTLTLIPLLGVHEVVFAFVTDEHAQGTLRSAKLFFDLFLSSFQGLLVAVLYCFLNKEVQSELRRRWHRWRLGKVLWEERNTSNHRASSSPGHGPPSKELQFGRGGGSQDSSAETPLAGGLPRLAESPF

- hGluc-R EC50 (pM) [1]: 984 pM
- hGLP-1R EC50 (pM) [2]: 630 pM
B1: Peptide 139 (peptide)
peptide: H[Aib]QGTFTSDVSK[αMeF]LDSK([γGlu-γGlu-AEEA-AEEA-γGlu-γGlu-C20 diacid])RAQDFVRWLLE[Aib]G-OH

- hGluc-R EC50 (pM) [1]: 2660 pM
- hGLP-1R EC50 (pM) [2]: 297 pM
B3: Peptide 515 (peptide)
peptide: H[Aib]QGTFTSDVSK[αMeF]LDTK([AEEA-AEEA-γGlu-C20 diacid])AARDFVQWLLE[Aib]G-NH2
modifications: N-terminus assumed
SMILES: CC(C)C[C@H](NC(=O)[C@H](Cc1c[nH]c2ccccc12)NC(=O)[C@H](CCC(N)=O)NC(=O)[C@@H](NC(=O)[C@H](Cc1ccccc1)NC(=O)[C@H](CC(=O)O)NC(=O)[C@H](CCCNC(=N)N)NC(=O)[C@H](C)NC(=O)[C@H](C)NC(=O)[C@H](CCCCNC(=O)COCCOCCNC(=O)COCCOCCNC(=O)CC[C@H](NC(=O)CCCCCCCCCCCCCCCCCCC(=O)O)C(=O)O)NC(=O)[C@@H](NC(=O)[C@H](CC(=O)O)NC(=O)[C@H](CC(C)C)NC(=O)[C@](C)(Cc1ccccc1)NC(=O)[C@H](CCCCN)NC(=O)[C@H](CO)NC(=O)[C@@H](NC(=O)[C@H](CC(=O)O)NC(=O)[C@H](CO)NC(=O)[C@@H](NC(=O)[C@H](Cc1ccccc1)NC(=O)[C@@H](NC(=O)CNC(=O)[C@H](CCC(N)=O)NC(=O)C(C)(C)NC(=O)[C@@H](N)Cc1c[nH]cn1)[C@@H](C)O)[C@@H](C)O)C(C)C)[C@@H](C)O)C(C)C)C(=O)N[C@@H](CC(C)C)C(=O)N[C@@H](CCC(=O)O)C(=O)NC(C)(C)C(=O)NCC(N)=O

- hGluc-R EC50 (pM) [1]: 738 pM
- hGLP-1R EC50 (pM) [2]: 146 pM
B4: Peptide 517 (peptide)
peptide: H[Aib]QGTFTSDVSK[αMeF]LEAK([AEEA-AEEA-γGlu-γGlu-C18 diacid])AAREFIAWLLET-NH2
modifications: N-terminus assumed
SMILES: CC[C@H](C)[C@H](NC(=O)[C@H](Cc1ccccc1)NC(=O)[C@H](CCC(=O)O)NC(=O)[C@H](CCCNC(=N)N)NC(=O)[C@H](C)NC(=O)[C@H](C)NC(=O)[C@H](CCCCNC(=O)COCCOCCNC(=O)COCCOCCNC(=O)CC[C@H](NC(=O)CC[C@H](NC(=O)CCCCCCCCCCCCCCCCC(=O)O)C(=O)O)C(=O)O)NC(=O)[C@H](C)NC(=O)[C@H](CCC(=O)O)NC(=O)[C@H](CC(C)C)NC(=O)[C@](C)(Cc1ccccc1)NC(=O)[C@H](CCCCN)NC(=O)[C@H](CO)NC(=O)[C@@H](NC(=O)[C@H](CC(=O)O)NC(=O)[C@H](CO)NC(=O)[C@@H](NC(=O)[C@H](Cc1ccccc1)NC(=O)[C@@H](NC(=O)CNC(=O)[C@H](CCC(N)=O)NC(=O)C(C)(C)NC(=O)[C@@H](N)Cc1c[nH]cn1)[C@@H](C)O)[C@@H](C)O)C(C)C)C(=O)N[C@@H](C)C(=O)N[C@@H](Cc1c[nH]c2ccccc12)C(=O)N[C@@H](CC(C)C)C(=O)N[C@@H](CC(C)C)C(=O)N[C@@H](CCC(=O)O)C(=O)N[C@H](C(N)=O)[C@@H](C)O

- hGluc-R EC50 (pM) [1]: 392 pM
- hGLP-1R EC50 (pM) [2]: 264 pM
B6: Peptide 141 (peptide)
peptide: H[Aib]QGTFTSDVSK[αMeF]LDSK([AEEA-AEEA-γGlu-C18 diacid])RAQDFVAWLLE[Aib]G-OH
modifications: N-terminus assumed
SMILES: CC(C)C[C@H](NC(=O)[C@H](Cc1c[nH]c2ccccc12)NC(=O)[C@H](C)NC(=O)[C@@H](NC(=O)[C@H](Cc1ccccc1)NC(=O)[C@H](CC(=O)O)NC(=O)[C@H](CCC(N)=O)NC(=O)[C@H](C)NC(=O)[C@H](CCCNC(=N)N)NC(=O)[C@H](CCCCNC(=O)COCCOCCNC(=O)COCCOCCNC(=O)CC[C@H](NC(=O)CCCCCCCCCCCCCCCCC(=O)O)C(=O)O)NC(=O)[C@H](CO)NC(=O)[C@H](CC(=O)O)NC(=O)[C@H](CC(C)C)NC(=O)[C@](C)(Cc1ccccc1)NC(=O)[C@H](CCCCN)NC(=O)[C@H](CO)NC(=O)[C@@H](NC(=O)[C@H](CC(=O)O)NC(=O)[C@H](CO)NC(=O)[C@@H](NC(=O)[C@H](Cc1ccccc1)NC(=O)[C@@H](NC(=O)CNC(=O)[C@H](CCC(N)=O)NC(=O)C(C)(C)NC(=O)[C@@H](N)Cc1c[nH]cn1)[C@@H](C)O)[C@@H](C)O)C(C)C)C(C)C)C(=O)N[C@@H](CC(C)C)C(=O)N[C@@H](CCC(=O)O)C(=O)NC(C)(C)C(=O)NCC(=O)O

- hGluc-R EC50 (pM) [1]: 1370 pM
- hGLP-1R EC50 (pM) [2]: 76.7 pM
B7: Peptide 514 (peptide)
peptide: H[Aib]QGTFTSDVSK[αMeF]LDTK([AEEA-AEEA-γGlu-C18 diacid])AARDFVQWLLE[Aib]G-NH2
modifications: N-terminus assumed
SMILES: CC(C)C[C@H](NC(=O)[C@H](Cc1c[nH]c2ccccc12)NC(=O)[C@H](CCC(N)=O)NC(=O)[C@@H](NC(=O)[C@H](Cc1ccccc1)NC(=O)[C@H](CC(=O)O)NC(=O)[C@H](CCCNC(=N)N)NC(=O)[C@H](C)NC(=O)[C@H](C)NC(=O)[C@H](CCCCNC(=O)COCCOCCNC(=O)COCCOCCNC(=O)CC[C@H](NC(=O)CCCCCCCCCCCCCCCCC(=O)O)C(=O)O)NC(=O)[C@@H](NC(=O)[C@H](CC(=O)O)NC(=O)[C@H](CC(C)C)NC(=O)[C@](C)(Cc1ccccc1)NC(=O)[C@H](CCCCN)NC(=O)[C@H](CO)NC(=O)[C@@H](NC(=O)[C@H](CC(=O)O)NC(=O)[C@H](CO)NC(=O)[C@@H](NC(=O)[C@H](Cc1ccccc1)NC(=O)[C@@H](NC(=O)CNC(=O)[C@H](CCC(N)=O)NC(=O)C(C)(C)NC(=O)[C@@H](N)Cc1c[nH]cn1)[C@@H](C)O)[C@@H](C)O)C(C)C)[C@@H](C)O)C(C)C)C(=O)N[C@@H](CC(C)C)C(=O)N[C@@H](CCC(=O)O)C(=O)NC(C)(C)C(=O)NCC(N)=O

Continued, binder first:

B2: Peptide 138 (peptide)
peptide: H[Aib]QGTFTSDVSK[αMeF]LDSK([γGlu-γGlu-AEEA-AEEA-γGlu-γGlu-C18 diacid])RAQDFVRWLLE[Aib]G-OH
modifications: N-terminus assumed
SMILES: CC(C)C[C@H](NC(=O)[C@H](Cc1c[nH]c2ccccc12)NC(=O)[C@H](CCCNC(=N)N)NC(=O)[C@@H](NC(=O)[C@H](Cc1ccccc1)NC(=O)[C@H](CC(=O)O)NC(=O)[C@H](CCC(N)=O)NC(=O)[C@H](C)NC(=O)[C@H](CCCNC(=N)N)NC(=O)[C@H](CCCCNC(=O)CC[C@H](NC(=O)CC[C@H](NC(=O)COCCOCCNC(=O)COCCOCCNC(=O)CC[C@H](NC(=O)CC[C@H](NC(=O)CCCCCCCCCCCCCCCCC(=O)O)C(=O)O)C(=O)O)C(=O)O)C(=O)O)NC(=O)[C@H](CO)NC(=O)[C@H](CC(=O)O)NC(=O)[C@H](CC(C)C)NC(=O)[C@](C)(Cc1ccccc1)NC(=O)[C@H](CCCCN)NC(=O)[C@H](CO)NC(=O)[C@@H](NC(=O)[C@H](CC(=O)O)NC(=O)[C@H](CO)NC(=O)[C@@H](NC(=O)[C@H](Cc1ccccc1)NC(=O)[C@@H](NC(=O)CNC(=O)[C@H](CCC(N)=O)NC(=O)C(C)(C)NC(=O)[C@@H](N)Cc1c[nH]cn1)[C@@H](C)O)[C@@H](C)O)C(C)C)C(C)C)C(=O)N[C@@H](CC(C)C)C(=O)N[C@@H](CCC(=O)O)C(=O)NC(C)(C)C(=O)NCC(=O)O
- hGluc-R EC50 (pM) [1]: 184 pM
- hGLP-1R EC50 (pM) [2]: 104 pM

B5: Peptide 137 (peptide)
peptide: H[Aib]QGTFTSDVSK[αMeF]LDSK([γGlu-γGlu-AEEA-AEEA-γGlu-γGlu-C18 diacid])RAQDFVRWLLEG[Aib]-OH
modifications: N-terminus assumed
SMILES: CC(C)C[C@H](NC(=O)[C@H](CC(C)C)NC(=O)[C@H](Cc1c[nH]c2ccccc12)NC(=O)[C@H](CCCNC(=N)N)NC(=O)[C@@H](NC(=O)[C@H](Cc1ccccc1)NC(=O)[C@H](CC(=O)O)NC(=O)[C@H](CCC(N)=O)NC(=O)[C@H](C)NC(=O)[C@H](CCCNC(=N)N)NC(=O)[C@H](CCCCNC(=O)CC[C@H](NC(=O)CC[C@H](NC(=O)COCCOCCNC(=O)COCCOCCNC(=O)CC[C@H](NC(=O)CC[C@H](NC(=O)CCCCCCCCCCCCCCCCC(=O)O)C(=O)O)C(=O)O)C(=O)O)C(=O)O)NC(=O)[C@H](CO)NC(=O)[C@H](CC(=O)O)NC(=O)[C@H](CC(C)C)NC(=O)[C@](C)(Cc1ccccc1)NC(=O)[C@H](CCCCN)NC(=O)[C@H](CO)NC(=O)[C@@H](NC(=O)[C@H](CC(=O)O)NC(=O)[C@H](CO)NC(=O)[C@@H](NC(=O)[C@H](Cc1ccccc1)NC(=O)[C@@H](NC(=O)CNC(=O)[C@H](CCC(N)=O)NC(=O)C(C)(C)NC(=O)[C@@H](N)Cc1c[nH]cn1)[C@@H](C)O)[C@@H](C)O)C(C)C)C(C)C)C(=O)N[C@@H](CCC(=O)O)C(=O)NCC(=O)NC(C)(C)C(=O)O
- hGluc-R EC50 (pM) [1]: 268 pM
- hGLP-1R EC50 (pM) [2]: 143 pM

B8: Peptide 136 (peptide)
peptide: H[Aib]QGTFTSDVSK[αMeF]LDSK([γGlu-γGlu-AEEA-AEEA-γGlu-γGlu-C18 diacid])RARDFVRWLLE[Aib]G-OH
modifications: N-terminus assumed
SMILES: CC(C)C[C@H](NC(=O)[C@H](Cc1c[nH]c2ccccc12)NC(=O)[C@H](CCCNC(=N)N)NC(=O)[C@@H](NC(=O)[C@H](Cc1ccccc1)NC(=O)[C@H](CC(=O)O)NC(=O)[C@H](CCCNC(=N)N)NC(=O)[C@H](C)NC(=O)[C@H](CCCNC(=N)N)NC(=O)[C@H](CCCCNC(=O)CC[C@H](NC(=O)CC[C@H](NC(=O)COCCOCCNC(=O)COCCOCCNC(=O)CC[C@H](NC(=O)CC[C@H](NC(=O)CCCCCCCCCCCCCCCCC(=O)O)C(=O)O)C(=O)O)C(=O)O)C(=O)O)NC(=O)[C@H](CO)NC(=O)[C@H](CC(=O)O)NC(=O)[C@H](CC(C)C)NC(=O)[C@](C)(Cc1ccccc1)NC(=O)[C@H](CCCCN)NC(=O)[C@H](CO)NC(=O)[C@@H](NC(=O)[C@H](CC(=O)O)NC(=O)[C@H](CO)NC(=O)[C@@H](NC(=O)[C@H](Cc1ccccc1)NC(=O)[C@@H](NC(=O)CNC(=O)[C@H](CCC(N)=O)NC(=O)C(C)(C)NC(=O)[C@@H](N)Cc1c[nH]cn1)[C@@H](C)O)[C@@H](C)O)C(C)C)C(C)C)C(=O)N[C@@H](CC(C)C)C(=O)N[C@@H](CCC(=O)O)C(=O)NC(C)(C)C(=O)NCC(=O)O
- hGluc-R EC50 (pM) [1]: 509 pM
- hGLP-1R EC50 (pM) [2]: 45.2 pM
